Data published in article PMC9444977 (Cancer research, 2022).

Biological target: T1, FHH-tagged Siah1, recombinant purified (UniProt Q8IUQ4 1-282, labeled with RED-tris-NTA 2nd generation dye (Monolith His-Tag labeling kit))
T1 sequence (looked up): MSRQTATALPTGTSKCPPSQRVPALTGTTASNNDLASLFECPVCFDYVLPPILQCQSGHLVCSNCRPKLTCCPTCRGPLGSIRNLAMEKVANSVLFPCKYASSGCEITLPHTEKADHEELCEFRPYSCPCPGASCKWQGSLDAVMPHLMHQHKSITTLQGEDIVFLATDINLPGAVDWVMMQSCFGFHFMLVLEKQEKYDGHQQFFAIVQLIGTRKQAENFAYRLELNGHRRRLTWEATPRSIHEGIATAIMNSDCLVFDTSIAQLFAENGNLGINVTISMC
Assay: MST

Kd: 9.8 µM
B1: n-terminus FLAG-tagged CacyBP, recombinant purified (natural protein, UniProt Q9HB71 1-228, looked up)
chain: MASEELQKDLEEVKVLLEKATRKRVRDALTAEKSKIETEIKNKMQQKSQKKAELLDNEKPAAVVAPITTGYTVKISNYGWDQSDKFVKIYITLTGVHQVPTENVQVHFTERSFDLLVKNLNGKSYSMIVNNLLKPISVEGSSKKVKTDTVLILCRKKVENTRWDYLTQVEKECKEKEKPSYDTETDPSEGLMNVLKKIYEDGDDDMKRTINKAWVESREKQAKGDTEF
